How the values were obtained:
[1] = test system: patients with Type 2 diabetes mellitus (T2DM); experiment: Events adjudicated as allergic reaction by ARAC (Example 2); format: in vivo, human
Text: The mission of the ARAC will be to adjudicate, in a timely manner, all allergic, or possible allergic events.
In case a patient experiences an allergic reaction or an allergic-like reaction this has to be reported as an adverse event and recorded in the e-CRF on the specific AE form for suspected allergic event. Additional information is collected on specific allergic reaction complementary form. Allergic reaction or possible allergic reaction will be adjudicated by the ARAC (Section 5.4.2).
The number (%) of patients with events adjudicated as allergic reactions by ARAC and with events adjudicated by ARAC as possibly related to the IMP will be summarized by treatment group. All the allergic events reported by the investigators on the AE form for suspected allergic event and its associated complementary forms (confirmed or not confirmed by ARAC) will be listed.

[2] = test system: patients with T2DM; experiment: Increased calcitonin reported on AE form (Example 3); format: in vivo, human
Text: During the course of the study, if calcitonin value is found […] (5.9 pmol/L): • A retest should be performed by the central laboratory within 7 days. In addition, blood should be collected and sent to the central laboratory for measurement of: calcium, phosphorus, gastrin, Thyroid Stimulating Hormone (TSH), and anti-thyroid peroxidase (anti-TPO) antibodies. • The clinical and laboratory documentations listed below are to be collected and recorded in source documents as soon as possible: • Potential false positive circumstances: smoking status, proton-pump inhibitor treatments (eg, omeprazole), autoimmune thyroid diseases (Hashimoto's thyroiditis or Grave's disease), differentiated thyroid cancer, hypercalcemia, hypergastrinemia, chronic renal insufficiency (not on dialysis), other neuro-endocrine tumors (lung small cell cancer, intestinal carcinoid), acute pulmonary inflammatory conditions, or sepsis; • Specific personal and/or familial medical history in relation to thyroid or other endocrine diseases; • Specific physical examination (neck, thyroid gland).
If the retest confirms that the calcitonin value is […]: • The event must be reported in the e-CRF on the specific AE form and specific complementary form for “increased calcitonin […]” with all appropriate clinical and laboratory documentation. • An ultrasound scan of the thyroid should be performed and the patient may be referred to a thyroid specialist if judged necessary. • The patient should continue to be followed according to protocol schedule (including planned calcitonin measurements). […] As far as possible, blood should be collected 1 to 2 weeks after IMP discontinuation and sent to the central laboratory for calcitonin measurement. • If at any time during follow-up a calcitonin value ≥20 pg/mL increases by 20% or more between 2 assessments (while remaining below 50 pg/mL), a repeated measurement should be performed earlier than scheduled in the protocol, ie, 1 month later. Once results are available, discussion with Sponsor should be initiated without delay for further guidance. 9.6.7 Monitoring of Renal Function in Case of Prolonged and Severe Nausea and Vomiting

[3] = test system: patients with T2DM; experiment: Standardized meal test: 2-hour glucose excursion and 2-hour PPG (Example 3); format: in vivo, human
Procedure: (§1) Patients will undergo a standardized meal challenge to assess fasting and postprandial glucose (central laboratory), as well as plasma glucose excursion.
(§2) The standardized meal contains approximately 600 kcal and is composed of 50 to 55% carbohydrate, 15 to 20% protein and 25 to 30% fat.
(§3) On the day of the standardized meal test, the patients will come to the investigational site in the morning, in fasting conditions for at least 8 hours and must not eat any food or drink, except water, before the scheduled standardized meal test. […] Patient in insulin glargine group will inject their insulin glargine at their usual injection time.
(§4) The standardized meal for all patients should be consumed within a 15-minute period. Blood for plasma glucose is drawn 5 times: • 30 minutes prior to the start of the meal and before IMP administration if the IMP is injected before breakfast; • Just before the start of the standardized meal (0 minute), • 30 minutes after the start of the standardized meal, • 60 minutes after the start of the standardized meal, • 120 minutes after the start of the standardized meal.
Similar MMRM method or analysis of covariance (ANCOVA) was applied on continuous secondary efficacy endpoints and the Cochran-Mantei-Haenszel method stratified by randomization strata was applied for categorical efficacy endpoints.

[4] = test system: patients with T2DM; experiment: Symptomatic hypoglycemia (Example 3)
[5] = test system: patients with Type 2 diabetes mellitus (T2DM); experiment: Standardized meal test: 2-hour glucose excursion and 2-hour PPG (Example 2); format: in vivo, human
Procedure: as §1, §2, §3, §4
Similar MMRM method or ANCOVA was applied on continuous secondary efficacy endpoints and Cochran-Mantei-Haenszel method stratified by randomization strata was applied on categorical efficacy endpoints.

[6] = on-treatment period, Safety population
[7] = PT, on-treatment period, Safety population
[8] = standardized meal test, ANCOVA, mITT population
[9] = standardized meal test, mITT population
[10] = plasma glucose <60 mg/dL [[…]], on-treatment period, Safety population
[11] = plasma glucose ≤70 mg/dL [[…]], on-treatment period, Safety population
[12] = Example 2, baseline, standardized meal test

Gly(A21)-Arg(B31)-Arg(B32)-human insulin [Insulin Glargine]
Allergic reaction by ARAC: All; Anaphylactic reaction ([1]; in vivo): 0 Number (%)
Allergic reaction by ARAC: All; Angioedema ([1]; in vivo): 0 Number (%)
Allergic reaction by ARAC: All; Other allergic reaction; Conjunctivitis allergic ([1]; in vivo): 1 (0.2%) Number (%)
Allergic reaction by ARAC: All; Other allergic reaction; Rhinitis allergic ([1]; in vivo): 2 (0.4%) Number (%)
Allergic reaction by ARAC: Not related to IMP; Angioedema ([1]; in vivo): 0 Number (%)
Allergic reaction by ARAC: Not related to IMP; Any category; Any event ([1]; in vivo): 3 (0.6%) Number (%)
Allergic reaction by ARAC: Not related to IMP; Other allergic reaction; Conjunctivitis allergic ([1]; in vivo): 1 (0.2%) Number (%)
Allergic reaction by ARAC: Not related to IMP; Other allergic reaction; Rhinitis allergic ([1]; in vivo): 2 (0.4%) Number (%)
Allergic reaction by ARAC: Possibly related to IMP; Anaphylactic reaction ([1]; in vivo): 0 Number (%)
Allergic reaction by ARAC: Possibly related to IMP; Any category; Any event ([1]; in vivo): 0 Number (%)
Allergic reactions possibly related to IMP (ARAC), number of patients ([1]; in vivo): none
Patients with events adjudicated as allergic reaction by ARAC: All; Any category; Any event ([1]; in vivo): 3 (0.6%) Number (%)
Allergic reaction by ARAC: All; Urticaria (hives); Urticaria [1, 6]: 1 (0.2%) Number (%)
Allergic reaction by ARAC: Not related to IMP; Urticaria (hives); Urticaria [1, 6]: 1 (0.2%) Number (%)
Allergic reaction by ARAC: Possibly related to IMP; Urticaria (hives); Urticaria [1, 6]: 0 Number (%)
Patients with TEAE of increased calcitonin (≥20 pg/mL) ([2]; Example 3): Two
% of patients with events reported on the AE form for increased calcitonin (≥20 ng/L): Blood calcitonin increased [2, 7]: 0.5%
Number of patients with events reported on the AE form for increased calcitonin (≥20 ng/L): Blood calcitonin increased [2, 7]: 2
% of patients with events reported on the AE form for increased calcitonin (≥20 ng/L): Any [2, 6]: 0.5%
Number of patients with events reported on the AE form for increased calcitonin (≥20 ng/L): Any [2, 6]: 2
2-hour PPG, LS mean change ([3]; Example 3): -1.39 mmol/L
2-hour glucose excursion, LS mean change from baseline to Week 30 ([3]; Example 3, standardized liquid breakfast meal): -0.47 mmol/L
2-hour plasma glucose excursion, change from baseline to Week 30 (LOCF), LS Mean (SE) [3, 8]: −0.47 (0.274) mmol/L
2-hour postprandial plasma glucose change from baseline to Week 30 (LOCF), LS Mean (SE) [3, 8]: −1.39 (0.310) mmol/L
2-hour plasma glucose excursion at Week 30 (LOCF), Mean (SD) [3, 9]: 6.71 (3.34) mmol/L
2-hour plasma glucose excursion at Week 30 (LOCF), Median [3, 9]: 6.40 mmol/L
2-hour plasma glucose excursion, change from baseline to Week 30 (LOCF), Mean (SD) [3, 9]: −0.44 (3.34) mmol/L
2-hour plasma glucose excursion, change from baseline to Week 30 (LOCF), Median [3, 9]: -0.30 mmol/L
2-hour postprandial plasma glucose at Week 30 (LOCF), Mean (SD) [3, 9]: 13.41 (3.83) mmol/L
2-hour postprandial plasma glucose at Week 30 (LOCF), Median [3, 9]: 13.10 mmol/L
2-hour postprandial plasma glucose change from baseline to Week 30 (LOCF), Mean (SD) [3, 9]: −1.56 (4.20) mmol/L
2-hour postprandial plasma glucose change from baseline to Week 30 (LOCF), Median [3, 9]: -1.50 mmol/L
Documented symptomatic hypoglycemia event rate per patient-year ([4]; Example 3): 4.22 per patient-year
Patients with at least one event of documented (PG ≤70 mg/dL) symptomatic hypoglycemia ([4]; Example 3): 42.5%
Severe symptomatic hypoglycemia, % of patients ([4]; Example 3): 0.3%
Severe symptomatic hypoglycemia, number of events ([4]; Example 3): 1 events
Severe symptomatic hypoglycemia, number of patients ([4]; Example 3): 1 patients
Probable symptomatic hypoglycaemia: Number of events [4, 6]: 29
Probable symptomatic hypoglycaemia: Number of events per patient year [4, 6]: 0.14
Probable symptomatic hypoglycaemia: Number of patients with events per patient year [4, 6]: 0.10
Probable symptomatic hypoglycaemia: patients with events, % [4, 6]: (5.5%)
Severe symptomatic hypoglycaemia: Number of events [4, 6]: 1
Severe symptomatic hypoglycaemia: Number of events per patient year [4, 6]: <0.01
Severe symptomatic hypoglycaemia: Number of patients with events per patient year [4, 6]: <0.01
Severe symptomatic hypoglycaemia: patients with events, % [4, 6]: (0.3%)
Symptomatic hypoglycemia: Number of events [4, 6]: 910
Symptomatic hypoglycemia: Number of events per patient year [4, 6]: 4.36
Symptomatic hypoglycemia: Number of patients with events per patient year [4, 6]: 0.77
Symptomatic hypoglycemia: patients with events, % [4, 6]: (44.1%)
Documented symptomatic hypoglycaemia: Number of events [4, 10]: 235
Documented symptomatic hypoglycaemia: Number of events per patient year [4, 10]: 1.13
Documented symptomatic hypoglycaemia: Number of patients with events per patient year [4, 10]: 0.40
Documented symptomatic hypoglycaemia: patients with events, % [4, 10]: (22.7%)
Documented symptomatic hypoglycaemia: Number of events [4, 11]: 880
Documented symptomatic hypoglycaemia: Number of events per patient year [4, 11]: 4.22
Documented symptomatic hypoglycaemia: Number of patients with events per patient year [4, 11]: 0.74
Documented symptomatic hypoglycaemia: patients with events, % [4, 11]: (42.5%)
2-hour plasma glucose excursion, change from baseline to Week 30 (LOCF), LS Mean (SE) ([5]; ANCOVA, mITT population): −0.18 (0.157) mmol/L
2-hour PPG change from baseline to Week 30 (LOCF) Mean (SD) ([5]; Example 2): −3.26 (3.54) mmol/L
2-hour PPG change from baseline to Week 30 (LOCF) Median ([5]; Example 2): -3.35 mmol/L
2-hour PPG change from baseline to Week 30 (LOCF) LS Mean (SE) ([5]; Example 2, ANCOVA): −3.31 (0.178) mmol/L
2-hour PPG change from baseline to Week 30 (LOCF) LS Mean (SE) ([5]; Example 2, ANCOVA, listed as insulin glargine): -3.31 mmol/L
2-hour postprandial plasma glucose Week 30 (LOCF) Mean (SD) ([5]; Example 2, Week 30 (LOCF)): 11.35 (3.12) mmol/L
2-hour postprandial plasma glucose Week 30 (LOCF) Median ([5]; Example 2, Week 30 (LOCF)): 11.20 mmol/L
2-hour glucose excursion, LS mean change ([5]; Example 2, baseline to Week 30, standardized liquid breakfast meal): -0.18 mmol/L
2-hour postprandial plasma glucose Baseline Mean (SD) [5, 12]: 14.61 (3.64) mmol/L
2-hour postprandial plasma glucose Baseline Median [5, 12]: 14.50 mmol/L
2-hour plasma glucose excursion, Week 30 (LOCF), Mean (SD) [5, 9]: 4.80 (2.90) mmol/L
2-hour plasma glucose excursion, Week 30 (LOCF), Median [5, 9]: 4.70 mmol/L
2-hour plasma glucose excursion, change from baseline to Week 30 (LOCF), Mean (SD) [5, 9]: −0.22 (2.86) mmol/L
2-hour plasma glucose excursion, change from baseline to Week 30 (LOCF), Median [5, 9]: -0.10 mmol/L

Source: patent US12186374B2 (Sanofi-Aventis Deutschland GmbH, priority 2014, dated 2025)
